The values below are quoted from earlier work in article PMC4567495.

A value given as a limit tells only on which side of the number the result lay.

In data set [1] the target is cardiac troponin I switch peptide 147-163 (Homo sapiens) (UniProt P19429). The experiment in a line: NMR.
In data set [2] the target is cardiac troponin I switch peptide (Homo sapiens) (UniProt P19429). The data set is described as follows: NMR.
Sequence of cardiac troponin I switch peptide (Homo sapiens) (P19429 2-210): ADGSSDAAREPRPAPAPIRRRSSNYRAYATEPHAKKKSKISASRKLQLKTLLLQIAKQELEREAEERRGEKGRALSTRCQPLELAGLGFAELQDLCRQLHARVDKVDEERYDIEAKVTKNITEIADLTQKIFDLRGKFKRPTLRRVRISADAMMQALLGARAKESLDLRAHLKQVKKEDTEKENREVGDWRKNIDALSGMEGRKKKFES

What is called Kd is the equilibrium constant for the complex coming apart. With “cardiac troponin C N-domain (from UniProt P63316)”, the dissociation constant (Kd) in data set [1] is 150 µM; in data set [2] it was above 2000 µM.
